This is an account of results in patent publication US11214624 (PRODA BIOTECH, dated 2022).

The target of experiment [1] is T1, dynein (endogenous, in SW480 cell extracts) (UniProt O14576 2-645).
T1 construct: Multi-subunit motor; also called Dynein intermediate 1
Kind of experiment: co-immunoprecipitation in extracts of scratch-wounded SW480 cells.

Experiment [2] concerns the target T2, kinesin (endogenous, in SW480 cell extracts) (UniProt P33176 2-963).
T2 construct: also called heavy chain of kinesin-1
T2 sequence (looked up): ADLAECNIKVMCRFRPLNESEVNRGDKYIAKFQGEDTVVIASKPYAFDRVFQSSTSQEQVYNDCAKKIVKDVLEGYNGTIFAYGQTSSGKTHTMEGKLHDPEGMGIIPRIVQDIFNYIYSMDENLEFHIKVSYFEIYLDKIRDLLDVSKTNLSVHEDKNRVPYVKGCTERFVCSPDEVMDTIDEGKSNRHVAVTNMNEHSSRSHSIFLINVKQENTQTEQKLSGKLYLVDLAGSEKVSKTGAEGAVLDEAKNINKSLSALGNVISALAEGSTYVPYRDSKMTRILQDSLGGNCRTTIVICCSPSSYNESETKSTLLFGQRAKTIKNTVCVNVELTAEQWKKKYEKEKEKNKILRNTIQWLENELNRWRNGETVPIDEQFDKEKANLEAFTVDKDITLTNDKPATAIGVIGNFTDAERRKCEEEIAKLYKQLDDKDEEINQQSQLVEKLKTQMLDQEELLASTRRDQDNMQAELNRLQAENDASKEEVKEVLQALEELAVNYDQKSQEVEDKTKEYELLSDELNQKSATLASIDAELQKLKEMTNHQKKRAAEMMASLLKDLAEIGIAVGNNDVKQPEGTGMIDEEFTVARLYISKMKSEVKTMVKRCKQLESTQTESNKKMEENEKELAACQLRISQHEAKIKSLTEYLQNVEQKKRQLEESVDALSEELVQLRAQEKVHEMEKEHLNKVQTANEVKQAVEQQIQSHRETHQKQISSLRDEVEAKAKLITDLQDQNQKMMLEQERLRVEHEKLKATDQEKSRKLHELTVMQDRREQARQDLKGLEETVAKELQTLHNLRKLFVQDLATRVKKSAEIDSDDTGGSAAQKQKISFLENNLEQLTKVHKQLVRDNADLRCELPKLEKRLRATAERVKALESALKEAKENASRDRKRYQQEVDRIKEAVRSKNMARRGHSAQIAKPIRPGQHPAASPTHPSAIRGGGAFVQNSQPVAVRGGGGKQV
The description is as above.

T1 sequence (O14576 2-645): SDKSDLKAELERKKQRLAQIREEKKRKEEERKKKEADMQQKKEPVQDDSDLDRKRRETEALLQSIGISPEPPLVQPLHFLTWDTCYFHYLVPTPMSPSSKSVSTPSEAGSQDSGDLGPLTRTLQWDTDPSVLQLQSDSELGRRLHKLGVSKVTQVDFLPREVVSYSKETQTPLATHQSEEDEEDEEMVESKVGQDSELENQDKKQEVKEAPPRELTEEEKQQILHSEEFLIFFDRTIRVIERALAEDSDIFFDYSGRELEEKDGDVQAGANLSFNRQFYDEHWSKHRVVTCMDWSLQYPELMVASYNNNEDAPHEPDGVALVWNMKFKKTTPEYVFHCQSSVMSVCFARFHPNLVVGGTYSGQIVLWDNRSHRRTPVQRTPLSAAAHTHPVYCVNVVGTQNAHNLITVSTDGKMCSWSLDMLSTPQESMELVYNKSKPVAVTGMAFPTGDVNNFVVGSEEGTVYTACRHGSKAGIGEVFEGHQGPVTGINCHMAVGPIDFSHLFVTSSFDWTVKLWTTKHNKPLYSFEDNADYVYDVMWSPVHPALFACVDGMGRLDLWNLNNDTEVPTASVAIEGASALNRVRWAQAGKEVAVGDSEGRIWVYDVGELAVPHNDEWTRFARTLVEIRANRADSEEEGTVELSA

B1: p68 RNA helicase (endogenous, in SW480 cell extracts) (enzyme)
chain: MSGYSSDRDRGRDRGFGAPRFGGSRAGPLSGKKFGNPGEKLVKKKWNLDELPKFEKNFYQEHPDLARRTAQEVETYRRSKEITVRGHNCPKPVLNFYEANFPANVMDVIARQNFTEPTAIQAQGWPVALSGLDMVGVAQTGSGKTLSYLLPAIVHINHQPFLERGDGPICLVLAPTRELAQQVQQVAAEYCRACRLKSTCIYGGAPKGPQIRDLERGVEICIATPGRLIDFLECGKTNLRRTTYLVLDEADRMLDMGFEPQIRKIVDQIRPDRQTLMWSATWPKEVRQLAEDFLKDYIHINIGALELSANHNILQIVDVCHDVEKDEKLIRLMEEIMSEKENKTIVFVETKRRCDELTRKMRRDGWPAMGIHGDKSQQERDWVLNEFKHGKAPILIATDVASRGLDVEDVKFVINYDYPNSSEDYIHRIGRTARSTKTGTAYTFFTPNNIKQVSDLISVLREANQAINPKLLQLVEDRGSGRSRGRGGMKDDRRDRYSAGKRGGFNTFRDRENYDRGYSSLLKRDFGAKTQNGVYSAANYTNGSFGSNFVSAGIQTSFRTGNPTGTYQNGYDSTQQYGSNVPNMHNGMNQQAYAYPATAAAPMIGYPMPTGYSQ
notes: Endogenous protein in lysates of SW480 cells; also called Human p68
For B1, the binding result in experiment [1] and in experiment [2] was “no binding” in each case.

B2: HA-tagged wild-type p68 (HA-p68), immunopurified from SW480 cell lysates (enzyme)
chain: MSGYSSDRDRGRDRGFGAPRFGGSRAGPLSGKKFGNPGEKLVKKKWNLDELPKFEKNFYQEHPDLARRTAQEVETYRRSKEITVRGHNCPKPVLNFYEANFPANVMDVIARQNFTEPTAIQAQGWPVALSGLDMVGVAQTGSGKTLSYLLPAIVHINHQPFLERGDGPICLVLAPTRELAQQVQQVAAEYCRACRLKSTCIYGGAPKGPQIRDLERGVEICIATPGRLIDFLECGKTNLRRTTYLVLDEADRMLDMGFEPQIRKIVDQIRPDRQTLMWSATWPKEVRQLAEDFLKDYIHINIGALELSANHNILQIVDVCHDVEKDEKLIRLMEEIMSEKENKTIVFVETKRRCDELTRKMRRDGWPAMGIHGDKSQQERDWVLNEFKHGKAPILIATDVASRGLDVEDVKFVINYDYPNSSEDYIHRIGRTARSTKTGTAYTFFTPNNIKQVSDLISVLREANQAINPKLLQLVEDRGSGRSRGRGGMKDDRRDRYSAGKRGGFNTFRDRENYDRGYSSLLKRDFGAKTQNGVYSAANYTNGSFGSNFVSAGIQTSFRTGNPTGTYQNGYDSTQQYGSNVPNMHNGMNQQAYAYPATAAAPMIGYPMPTGYSQ
notes: One construct, purified from SW480 cells either with or without scratch-wound treatment; also called HA-p68 WT; WT; not shown: hemagglutinin (HA) tag from the pHM6 vector
With B2, the binding result in experiment [1] and in experiment [2] was “no binding” each time.
